For the assay, the target named is T1, HA-tagged full-length human LGR7 expressed on cells (HA-LGR7/DG44, HA-LGR7/BaF3) (human, UniProt Q9HBX9 1-757).
T1 construct: Full-length human LGR7 with an N-terminal HA tag, forcedly expressed in DG44 (CHO-derived) or Ba/F3 cells; also called HA-LGR7/DG#24; HA-LGR7/DG44#24
T1 sequence: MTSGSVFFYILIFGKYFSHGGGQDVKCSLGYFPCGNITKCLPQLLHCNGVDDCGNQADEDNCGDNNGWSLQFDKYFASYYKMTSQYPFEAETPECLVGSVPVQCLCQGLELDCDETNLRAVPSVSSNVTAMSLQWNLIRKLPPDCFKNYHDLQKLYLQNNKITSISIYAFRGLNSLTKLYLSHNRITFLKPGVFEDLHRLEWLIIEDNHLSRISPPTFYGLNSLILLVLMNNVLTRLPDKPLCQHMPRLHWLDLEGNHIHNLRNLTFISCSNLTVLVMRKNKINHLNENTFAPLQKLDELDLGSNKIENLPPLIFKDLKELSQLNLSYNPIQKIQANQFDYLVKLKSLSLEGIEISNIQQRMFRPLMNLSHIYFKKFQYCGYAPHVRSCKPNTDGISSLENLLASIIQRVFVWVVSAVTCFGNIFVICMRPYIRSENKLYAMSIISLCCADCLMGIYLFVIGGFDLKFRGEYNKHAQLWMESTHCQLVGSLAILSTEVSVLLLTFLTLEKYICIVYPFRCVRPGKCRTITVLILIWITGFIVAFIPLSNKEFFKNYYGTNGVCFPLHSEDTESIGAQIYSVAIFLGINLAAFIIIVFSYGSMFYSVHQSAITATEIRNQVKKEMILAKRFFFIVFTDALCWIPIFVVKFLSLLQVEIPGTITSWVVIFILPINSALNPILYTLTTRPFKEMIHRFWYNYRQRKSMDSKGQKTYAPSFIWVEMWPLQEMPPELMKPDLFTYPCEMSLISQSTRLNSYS
Nature of the assay: flow cytometry, hybridoma supernatant on LGR7-expressing DG44 cells against parental DG44 cells. As for the experimental part: The binding of the obtained hybridomas to human LGR7/DG44 cells was evaluated by flow cytometry. The cell line expressing human LGR7 suspended in FACS buffer (2% FBS/PBS/0.05% NaN₃) was diluted to 1×10⁶ cells/mL using FACS buffer, and this was aliquoted into a Falcon 353910 round-bottom 96-well plate at 50 μL/well. The hybridoma culture supernatant diluted to a suitable concentration was added to the wells containing the cells, and this was reacted for 60 minutes on ice. Next, the cells were rinsed once with FACS buffer. As a secondary antibody, a goat F(ab′)₂ fragment anti-mouse IgG Fcγ-FITC (Beckman Coulter) was added to the wells containing the cells, and this was reacted for 30 minutes on ice. After the reaction, the supernatant was removed by centrifugation, and the cells were suspended in 100 μL of FACS buffer, and subjected to flow cytometry. The FACS Calibur (Becton Dickinson) was used for the flow cytometry. A gate for the viable cell population was established using a forward scatter/side scatter dot blot, and an FL1 histogram was produced for the cells included in the population, and their binding activity was evaluated.
The hybridoma supernatants were reacted with DG44 cells induced to express LGR7 and the parental DG44 cells, respectively. Thus, hybridomas that specifically react with LGR7-expressing cells were obtained. The hybridomas from the wells were made into single clones by the limiting dilution method. The isotype of each antibody was analyzed using an IsoStrip® mouse monoclonal antibody isotyping kit (Roche Diagnostics). As a result, the isotype of 22DA6, 22DA7, 22DA11, 22DA12, 22DA23, and 22DA24 is IgG1; and the isotype of 22DA4, 22DA10, 22SD7, 22SD25, 22SD31, and 22SD48 is IgG2a; and the isotype of 22DA17 and 22DA20 is IgG2b. Expansion culture of a single-clone hybridoma was performed, and then the antibody was purified from the culture supernatant using a protein G column according to the manual. The purified antibody was subjected to protein quantification by DC Protein Assay, etc.
(In general: In flow cytometry, cells or beads pass a laser one at a time.)

B1: 22DA23 (antibody, IgG1, V domains shown)
VH: EIQLQQSRPELVRPGASVKVSCQASGYAFTNYNMYWVKQSHGKSLEWIGYIDPYNDDTTYNQKFKGKATLTVDKSSSTAYMHLNSLTSEDSAVFYCARFRLGYYAMDYWGQGASVTVSS
VL: DIVLTQSPASLAVSLGQRATISCKASQSVDYDLDSYMNWYQQKPGQPPKLLIYVASNLESGIPARFSGSGSGTDFTLNIHPVEEEDAATYYCQQSNEDPFTFGSGTKLEIK
notes: Mouse hybridoma antibody, isotype IgG1; also called anti-human LGR7 monoclonal antibody 22DA23
Turning to B1, the binding result is “binds”.

B2: 22SD7 (antibody, IgG2a, V domains shown)
VH: QVQLQQPGAELVRPGASVKLSCKASGYTFTSYWMNWVKQRPEQGLEWIGRIDPYDSETHYNQKFKDKAILTVDKSSSTAYMQLSSLTSEDSAVYYCARWEVVAPWDYWGQGTTLTVSS
VL: DIVMTQAAPSVPVTPGESVSISCRSSKSLLHSNGNTYLYWFLQRPGQSPQLLIYRMSNLASGVPDRFSGSGSGTAFTLRISRVEAEDVGVYYCMQHLEYPWTFGGGTKLEIK
notes: Mouse hybridoma antibody, isotype IgG2a; also called anti-LGR7 monoclonal antibody 22SD7
As for B2, the binding result is listed as “binds”.

B3: 22DA17 (antibody, IgG2b, V domains shown)
VH: QVQLQQSGAELVRPGVSVKLSCKASGYSLTTYWMNWVKQRPGQGLEWIGMIHPSDSETVINQKFKDKATLTVDKSSSTAYMQLSSPTSEDSAVYYCARWDYDYYFDYWGQGTTLTVSS
VL: DVLMTQTPLSLPVSLGDQASISCRSSQSIVHSNGNTYLEWYLQKPGQSPNLLIYKVSNRFSGVPDRFSGSGSGTDFTLKISRVEAEDLGVYYCFQGSHVPFTFGSGTKLEIK
notes: Mouse hybridoma antibody, isotype IgG2b; also called Bio-22DA17 (biotinylated form)
On to B3, for which the binding result is reported as “binds”.

The record behind these values is patent publication US20120014870A1 (FORERUNNER PHARMA RESEARCH, published 2012).
